Reference: patent US20230272099A1 (Chugai, published 2023)

B1: 20H4.9-MB110/20H4.9LC-mk0 (antibody, mouse IgG1, kappa)
heavy: QVQLQQWGAGLLKPSETLSLTCAVYGGSFSGYYWSWIRQSPEKGLEWIGEINHGGYVTYNPSLESRVTISVDTSKNQFSLKLSSVTAADTAVYYCARDYGPGNYDWYFDLWGRGTLVTVSSAKTTPPSVYPLAPGSAAQTNSMVTLGCLVKGYFPEPVTVTWNSGSLSSGVHTFPAVLQSDLYTLSSSVTVPSSTWPSETVTCNVAHPASSTKVDKKIVPRDCGCKPCICTVPEVSDVFIFPPKPKDVLTITLTPKVTCVVVDISKDDPEVQFSWFVDDVEVHTAQTQPREEQFNSTFRSVSELPIMHQDWLNGKEFKCRVNSAAFPAPIEKTISKTKGRPKAPQVYTIPPPKEQMAKDKVSLTCMITDFFPEDITVEWQWNGQPAENYKNTQPIMDTDGSYFVYSKLNVQKSNWEAGNTFTCSVLHEGLHNHHTEKSLSHSPGK
light: EIVLTQSPATLSLSPGERATLSCRASQSVSSYLAWYQQKPGQAPRLLIYDASNRATGIPARFSGSGSGTDFTLTISSLEPEDFAVYYCQQRSNWPPALTFGGGTKVEIKRADAAPTVSIFPPSSEQLTSGGASVVCFLNNFYPKDINVKWKIDGSERQNGVLNSWTDQDSKDSTYSMSSTLTLTKDEYERHNSYTCEATHKTSTSPIVKSFNRNEC
notes: also called NS1-MB110
B2: 20H4.9-mIgG1/20H4.9LC-mk0 (antibody)
heavy: QVQLQQWGAGLLKPSETLSLTCAVYGGSFSGYYWSWIRQSPEKGLEWIGEINHGGYVTYNPSLESRVTISVDTSKNQFSLKLSSVTAADTAVYYCARDYGPGNYDWYFDLWGRGTLVTVSSAKTTPPSVYPLAPGSAAQTNSMVTLGCLVKGYFPEPVTVTWNSGSLSSGVHTFPAVLQSDLYTLSSSVTVPSSTWPSETVTCNVAHPASSTKVDKKIVPRDCGCKPCICTVPEVSSVFIFPPKPKDVLTITLTPKVTCVVVDISKDDPEVQFSWFVDDVEVHTAQTQPREEQFNSTFRSVSELPIMHQDWLNGKEFKCRVNSAAFPAPIEKTISKTKGRPKAPQVYTIPPPKEQMAKDKVSLTCMITDFFPEDITVEWQWNGQPAENYKNTQPIMDTDGSYFVYSKLNVQKSNWEAGNTFTCSVLHEGLHNHHTEKSLSHSPGK
light: EIVLTQSPATLSLSPGERATLSCRASQSVSSYLAWYQQKPGQAPRLLIYDASNRATGIPARFSGSGSGTDFTLTISSLEPEDFAVYYCQQRSNWPPALTFGGGTKVEIKRADAAPTVSIFPPSSEQLTSGGASVVCFLNNFYPKDINVKWKIDGSERQNGVLNSWTDQDSKDSTYSMSSTLTLTKDEYERHNSYTCEATHKTSTSPIVKSFNRNEC
notes: also called NS1-mIgG1
B3: 20H4.9-MB492/20H4.9LC-mk0 (antibody, mouse IgG1, kappa)
heavy: QVQLQQWGAGLLKPSETLSLTCAVYGGSFSGYYWSWIRQSPEKGLEWIGEINHGGYVTYNPSLESRVTISVDTSKNQFSLKLSSVTAADTAVYYCARDYGPGNYDWYFDLWGRGTLVTVSSAKTTPPSVYPLAPGSAAQTNSMVTLGCLVKGYFPEPVTVTWNSGSLSSGVHTFPAVLQSDLYTLSSSVTVPSSTWPSETVTCNVAHPASSTKVDKKIVPRDCGCKPCICEPNEVEDVFIFPPKPKDVLTITLTPKVTCVVVDISKDDPEVQFSWFVDDVEVHTAQTQPREEQFNSTFRSVSELPIMHQDWLNGKEFKCRVDSAAFPAPIEKTISKTKGRPKAPQVYTIPPPKEQMAKDKVSLTCMITDFFPEDITVEWQWNGQPAENYKNTQPIMDTDGSYFVYSKLNVQKSNWEAGNTFTCSVLHEGLHNHHTEKSLSHSPGK
light: EIVLTQSPATLSLSPGERATLSCRASQSVSSYLAWYQQKPGQAPRLLIYDASNRATGIPARFSGSGSGTDFTLTISSLEPEDFAVYYCQQRSNWPPALTFGGGTKVEIKRADAAPTVSIFPPSSEQLTSGGASVVCFLNNFYPKDINVKWKIDGSERQNGVLNSWTDQDSKDSTYSMSSTLTLTKDEYERHNSYTCEATHKTSTSPIVKSFNRNEC
notes: also called NS1-MB492
B4: dBBAT119-P253 (antibody, human IgG1, lambda, V domains shown)
VH: EVQLVESGGDLVKPGGGLRLSCAASGFTFSTFTMNWVRQAPGKGLEWVSSISSRSNYKSYADSVKGRFTISRDNAKNSLYLQMNSLRAEDTAVYYCARYGAKNFMNWVFDYWGQGTLVTVSS
VL: QSALTQPPSASGSPGQTVTISCTGTSTDVGFYNYVSWYQQHPGKAPKLMIYYTSKRPSGVPDRFSGSKSGNTASLTVSGLQAEDEADYFCSSYRYDHQVSFGGGTKLTVLG
notes: also called dBBAT119H-P253/dBBAT119L-LamLib
B5: dBBAT021-P253 (antibody, human IgG1, lambda, V domains shown)
VH: EVQLVESGGDLVKPGGGLRLSCAASGFTFSSYTMNWVRQAPGKGLEWVSSISSRSNYRDYADSVKGRFTISRDNAKNSLYLQMNSLRAEDTAVYYCARYGGKNILNWVFDYWGQGTLVTVSS
VL: QSALTQPPSASGSPGQTVTISCTGTSSDVGFYNYVSWYQQHPGKAPKLMIYEVSKRPSGVPDRFSGSKSGNTASLTVSGLQAEDEADYFCSSYSSDTHVGFGGGTKLTVLG

How the values were obtained:
hCD137 (FXa digested) [1] = molecular target: T1, hCD137 (FXa digested) (human, UniProt Q07011 24-186); test: SPR 37C, 100 uM ATP
T1 construct: Factor Xa digestion and Protein A removed the Fc; also called human CD137 extracellular domain
Description: (§1) Measurements of human CD137 binding were taken at 37° C. using 20 mM ACES (pH 7.4), 150 mM NaCl, 2 mM MgCl₂, and 0.05% Tween20 as running buffer. At first, antibodies were captured by interacting antibody solutions prepared in running buffer with the rabbit anti-mouse IgG (Thermo Scientific)-immobilized Series S Sensor Chip CM5 (GE Healthcare). The human CD137-binding activity in the presence of ATP and in the absence of ATP was then assessed by interacting with a human CD137 solution prepared in running buffer supplemented with a desired concentration of ATP, or a human CD137 solution prepared in running buffer without ATP. […] The chip was regenerated using 25 mM NaOH and 10 mM Glycine-HCl (pH 1.5), and measurements were performed by repeatedly capturing antibodies. Dissociation constant (KD) of the respective antibodies for human CD137 was calculated using Biacore T200 Evaluation Software 2.0. Specifically, the association rate constant ka (L/mol/s) and the dissociation rate constant kd (1/s) were calculated by global fitting of the sensorgrams obtained by measurement with the 1:1 Langmuir binding model, and the dissociation constant KD (mol/L) was calculated from these values.

hCD137 (FXa digested) [2] = molecular target: T1, hCD137 (FXa digested); test: SPR 37C, 1 uM ATP
Description: as §1

hCD137 (FXa digested) [3] = molecular target: T1, hCD137 (FXa digested); test: SPR 37C, 10 uM ATP
Description: as §1

hCD137 (FXa digested) [4] = molecular target: T1, hCD137 (FXa digested); test: SPR 37C, no ATP
Description: as §1

[5] = molecular target: T2, biotinylated Fc-fused monkey CD137 (monkey, biotin on the AviTag); test: ELISA, 1 mM ADP, 2.5 ug/mL; parameters: reference not given here
T2 construct: also called cyCD137-Fc-BAP
Description: (§2) The obtained antibodies were evaluated for binding to monkey CD137 by ELISA. The cyCD137-Fc-BAP prepared in Reference Example 1 was immobilized on Streptawell microtiter plates. After the unbound antigen was removed from the plates by washing each well of the plates with the wash buffer, the wells were blocked with 150 μL of a blocking buffer (TBS with 2% BSA) for 1 hour or more. The blocking buffer was removed from each well, and 100 μL of the purified antibodies diluted in TBS with a final concentration of 1 mM ADP, or TBS with a final concentration 1 mM ADP was added to each well. The plate to which the antibody was added was shaken at 600 rpm for 1 hour. The AP-conjugated anti-human lambda antibodies (BETHYL) diluted in TBS with a final concentration of 1 mM ADP were added to each well after washing with a wash buffer (TBS with 0.1% Tween20) containing a final concentration of 1 mM ADP. After incubation for one hour and washing with a wash buffer containing a final concentration of 1 mM […], BluePhos phosphate substrate (KPL) was added. Color development was measured by absorbance at 600 nm. Samples with a concentration-dependent increase in the absorbance ratio can be said to be bound to monkey CD137.

[6] = molecular target: T2, biotinylated Fc-fused monkey CD137; test: ELISA, 1 mM ADP, 0.039 ug/mL; parameters: reference not given here
Description: as §2

hCD137 (FXa digested) [7] = molecular target: T1, hCD137 (FXa digested); test: SPR, 100 uM AMP
Description: (§3) Biacore T200 (GE Healthcare) was used to analyze the interaction of antigen-antibody reaction between the anti-CD137 antibodies and hCD137 (FXa digest). […] For the running buffer, 20 mM ACES, 150 mM NaCl, 2 mM MgCl₂, 0.05% Tween20 (pH 7.4) was used, and 10 mM Glycine-HCl (pH 1.5) was used as the regeneration solution.
(§4) After capturing of the anti-CD137 antibodies suspended in TBS, 500 nM hCD137 (FXa digest) was injected into each flow cell at a flow rate of 10 μL/min for three minutes. This three-minute period served as the binding phase for hCD137 (FXa digest), and after the binding phase ended, the two-minute period of switching to the running buffer served as the dissociation phase for hCD137 (FXa digest). After completion of the dissociation phase, the regenerative solution was injected at a flow rate of 30 μl/min for 30 seconds. The above was the cycle for measuring the binding activity of anti-CD137 antibodies. The binding amount of hCD137 (FXa digest) that interacted with the anti-CD137 antibody in the binding phase was adjusted by the amount of antibody captured. Biacore T200 Evaluation Software Version 2.0 was used to display the binding amount (RU) per capture ligand 1 RU, and values of the antibody capture amount (amount of antibody captured) and antigen-binding amount were obtained. Since the binding amount of antigen reflects the binding activity, it can be said that dependence on a small molecule is recognized when the value in the presence of the small molecule (ATP, ADP or AMP) is higher than the value without the small molecule. In particular, the larger the difference is, the higher the dependence is on a small molecule.

hCD137 (FXa digested) [8] = molecular target: T1, hCD137 (FXa digested); test: SPR, 100 uM ATP
Description: as §3, §4

[9] = molecular target: T2, biotinylated Fc-fused monkey CD137; test: ELISA, 1 mM ADP, 10 ug/mL; parameters: reference not given here
Description: as §2

hCD137 (FXa digested) [10] = molecular target: T1, hCD137 (FXa digested); test: SPR, 1 mM ATP
Description: as §3, §4

hCD137 (FXa digested) [11] = molecular target: T1, hCD137 (FXa digested); test: SPR, 1 mM AMP
Description: as §3, §4

[12] = molecular target: T2, biotinylated Fc-fused monkey CD137; test: ELISA, 1 mM ADP, 0.156 ug/mL; parameters: reference not given here
Description: as §2

[13] = molecular target: T2, biotinylated Fc-fused monkey CD137; test: ELISA, 1 mM ADP, 0.625 ug/mL; parameters: reference not given here
Description: as §2

hCD137 (FXa digested) [14] = molecular target: T1, hCD137 (FXa digested); test: SPR, 100 uM ADP
Description: as §3, §4

hCD137 (FXa digested) [15] = molecular target: T1, hCD137 (FXa digested); test: SPR, 10 uM ADP
Description: as §3, §4

[16] = molecular target: T2, biotinylated Fc-fused monkey CD137; test: ELISA, 1 mM ADP, 0.010 ug/mL; parameters: reference not given here
Description: as §2

hCD137 (FXa digested) [17] = molecular target: T1, hCD137 (FXa digested); test: SPR, no small molecule
Description: as §3, §4

T1 sequence (Q07011 other isoform, or with tags, fused parts or gaps limits assumed): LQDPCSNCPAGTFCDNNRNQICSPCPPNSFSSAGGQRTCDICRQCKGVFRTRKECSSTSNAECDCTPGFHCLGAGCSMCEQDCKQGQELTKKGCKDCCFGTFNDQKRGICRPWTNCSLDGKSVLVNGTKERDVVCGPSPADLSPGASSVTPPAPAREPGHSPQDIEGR
T2 sequence (chain, as listed by the source limits assumed): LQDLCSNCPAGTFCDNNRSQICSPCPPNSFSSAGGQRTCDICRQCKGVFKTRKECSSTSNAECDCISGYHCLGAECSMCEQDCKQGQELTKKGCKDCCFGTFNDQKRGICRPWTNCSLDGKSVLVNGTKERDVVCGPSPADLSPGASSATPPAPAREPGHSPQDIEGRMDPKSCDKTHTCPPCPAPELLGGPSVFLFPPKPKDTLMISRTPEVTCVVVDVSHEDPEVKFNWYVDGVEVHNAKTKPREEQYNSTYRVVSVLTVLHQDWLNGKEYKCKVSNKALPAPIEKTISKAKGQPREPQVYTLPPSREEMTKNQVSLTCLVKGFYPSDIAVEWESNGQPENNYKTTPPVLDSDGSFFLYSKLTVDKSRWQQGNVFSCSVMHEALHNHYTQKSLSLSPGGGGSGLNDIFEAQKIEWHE

Row | Binder | Kd (hCD137 (FXa digested) [1]) [nM] | Kd (hCD137 (FXa digested) [2]) [nM] | Kd (hCD137 (FXa digested) [3]) [nM] | Kd (hCD137 (FXa digested) [4]) [nM] | absorbance ratio [5] | absorbance ratio [6] | binding amount (hCD137 (FXa digested) [7]) [RU] | binding amount (hCD137 (FXa digested) [8]) [RU] | absorbance ratio [9] | binding amount (hCD137 (FXa digested) [10]) [RU] | binding amount (hCD137 (FXa digested) [11]) [RU] | absorbance ratio [12] | absorbance ratio [13] | binding amount (hCD137 (FXa digested) [14]) [RU] | binding amount (hCD137 (FXa digested) [15]) [RU] | absorbance ratio [16] | binding amount (hCD137 (FXa digested) [17]) [RU]
1 | B1 | 51.9 | 56.5 | 53.9 | 61 |  |  |  |  |  |  |  |  |  |  |  |  | 
2 | B2 | 53.6 | 56.2 | 54.4 | 61.7 |  |  |  |  |  |  |  |  |  |  |  |  | 
3 | B3 | 50.4 | 54.9 | 53.5 | 61.6 |  |  |  |  |  |  |  |  |  |  |  |  | 
4 | B4 |  |  |  |  | 56.6 | 26.6 | 26.9 | 12.9 | 55.3 | 45.7 | 58.6 | 47.7 | 57.2 | 112 | 67.2 | 10.2 | 3.3
5 | B5 |  |  |  |  | 14 | 1.2 | 3 | 2.4 | 40.5 | 9.2 | 5.7 | 1.7 | 4.6 | 56.6 | 19.6 | 0.9 | 2.9
